In US20210139608:

Test system: T1, MMP2-cleavable peptide linker CGPLGVRGG within the MAP-Ab conjugate (imuGlue)
T1 sequence: CGPLGVRGG

MMP2 (matrix metalloproteinase-2)
cumulative Ab release profile from MAP-Ab in the presence of MMP2: the imuGlue may release 75% of Ab sprayed for 24 hours in the presence of MMP2 | emission spectrum of MAP-Ab with or without MMP2: when MMP2 treatment was carried out, a blue shift was observed in the MAP-Ab emission spectrum
